Test results taken from PMC5886543, “A staphylococcal anti-sigma factor possesses a single-domain, carries different denaturant-sensitive regions and unfolds via two intermediates” (PLoS ONE, 2018).

Molecular target: the molecule itself
Experiment: cross-linking; rRsbW 10 uM in buffer B (20 mM phosphate pH 8.0, 100 mM NaCl, 5% glycerol), 0.1% glutaraldehyde, 2 min, 25 C; SDS-13.5% PAGE; no denaturant

B1: rRsbW, a recombinant S. aureus RsbW (enzyme, Staphylococcus aureus Newman, UniProt A6QIR1 1-159, looked up)
chain: MQSKEDFIEMRVPASAEYVSLIRLTLSGVFSRAGATYDDIEDAKIAVSEAVTNAVKHAYKENNNVGIINIYFEILEDKIKIVISDKGDSFDYETTKSKIGPYDKDENIDFLREGGLGLFLIESLMDEVTVYKESGVTISMTKYIKKEQVRNNGERVEIS
notes: RsbW of Staphylococcus aureus Newman, UniProt A6QIR1; 480 bp insert amplified from genomic DNA with primers rsbWF (begins at the ATG) and rsbWR; native RsbW 17.92 kDa, rRsbW 21.74 kDa. numbers count on: rRsbW with its 36 N-terminal extra residues (RsbW residue 1 is rRsbW residue 37); Surmised: the 36 extra residues are those that pET28a adds before its EcoRI site; also called anti-sigma factor; …
- stoichiometry N: 2
